Target: T1, LRRC33 (Leucine-rich repeat-containing protein 33) (human, UniProt Q86YC3 19-692)
T1 construct: Endogenous LRRC33 on the surface of PMA-stimulated THP1 cells; On cells it may be complexed with proTGFb1; also called NRROS; Negative Regulator of Reactive Oxygen Species
T1 sequence: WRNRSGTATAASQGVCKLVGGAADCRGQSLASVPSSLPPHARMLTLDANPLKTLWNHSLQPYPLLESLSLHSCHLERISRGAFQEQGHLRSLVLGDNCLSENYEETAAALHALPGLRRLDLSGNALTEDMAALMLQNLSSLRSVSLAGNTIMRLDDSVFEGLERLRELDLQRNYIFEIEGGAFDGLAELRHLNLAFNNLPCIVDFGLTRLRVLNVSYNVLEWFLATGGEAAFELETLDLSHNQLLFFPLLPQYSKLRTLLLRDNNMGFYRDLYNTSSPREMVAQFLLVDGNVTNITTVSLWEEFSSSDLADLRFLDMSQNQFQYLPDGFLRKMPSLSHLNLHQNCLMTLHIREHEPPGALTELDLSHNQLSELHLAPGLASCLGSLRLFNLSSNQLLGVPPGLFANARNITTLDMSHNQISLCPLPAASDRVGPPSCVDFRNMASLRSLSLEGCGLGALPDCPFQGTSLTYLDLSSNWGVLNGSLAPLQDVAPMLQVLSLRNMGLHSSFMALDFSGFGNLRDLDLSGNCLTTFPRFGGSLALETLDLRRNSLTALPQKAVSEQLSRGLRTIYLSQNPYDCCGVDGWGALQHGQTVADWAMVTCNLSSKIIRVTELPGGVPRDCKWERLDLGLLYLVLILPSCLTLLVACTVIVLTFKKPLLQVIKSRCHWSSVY
Assay: staining of PMA-stimulated THP1 cells with 10 ug/mL antibody, detected with fluorophore conjugated secondary antibody (internalization assay)
Description: FIG. 15 provides results from an internalization study. THP1 cells were stimulated overnight with PMA to induce LRRC33 surface expression and adherence to tissue culture plastic. The next day, cells were stained with antibodies at 10 ug/mL for 1 hour. A subset of cells were washed and moved to cell culture media and to 37° C. for 1 hour or two hours, while another subset (time 0) were immediately fixed. Another subset of cells were washed and kept at 4° C. Internalization was detected by using fluorophore conjugated secondary antibodies against the primary antibody isotypes. Gemtuzumab and SRL1, a human specific mouse antibody against LRRC33, internalize similarly.

- binding result: binds
B1: SRL1 (antibody, V domains shown)
VH: EVQLQQSGTVLARPGASVKMSCKASGYTFTYYWMQWVKQRPGQGLEWIGAIYPGNSDTTYNQKFKGKAKLTAVTSTSTAYMELSSLTNEDSAVYYCTNTNWEAMDYWGQGTSVTVSS
VL: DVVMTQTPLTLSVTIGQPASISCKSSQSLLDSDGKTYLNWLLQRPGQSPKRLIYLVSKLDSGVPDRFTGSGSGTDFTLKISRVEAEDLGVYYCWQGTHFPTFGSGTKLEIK
notes: also called LRRC33 antibody SRL1

Source: patent US20200181251A1 (SCHOLAR ROCK, published 2020)
